Patent publication US20110124572A1, “SYNDECAN-4 IS A REGULATOR OF RAC1-GTP” (priority 2008, published 2011)

Biological target: p21-binding domain of PAK-1 fused to agarose beads (GST-Pak1-Rac/Cdc42-binding domain), as used in the Rac1 activation kit (UniProt Q13153)
Assay: PAK-1 p21-binding domain (PAK-PKB) pull-down from cell lysate, blot with anti-syndecan-4 or anti-GFP

p21-binding domain of PAK-1 fused to agarose beads (GST-Pak1-Rac/Cdc42-binding domain), as used in the Rac1 activation kit, sequence (Q13153 67-150 limits assumed): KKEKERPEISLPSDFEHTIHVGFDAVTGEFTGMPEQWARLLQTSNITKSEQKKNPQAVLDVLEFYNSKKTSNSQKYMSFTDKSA

amount of pulled-down syndecan-4 against the Ser179Ala line (% less than Ser179Ala line): 20
Substance: wt-syndecan-4-GFP chimera (human syndecan-4, wild type, GFP inserted at position 131) (from UniProt P31431 19-198)
